Experimental data taken from publication PMC10813304.

What was measured:
[1] = biological target: C133Q ΔLTRIN (Aedes aegypti); assay: dynamic and static light scattering; DynaPro Nanostar; ΔLTRIN at 1 mg/mL to 20 mg/mL; also with Ca2+ or EGTA without effect
[2] = biological target: C133Q ΔLTRIN (Aedes aegypti); assay: SEC; Superdex 75 after Ni-NTA and ion exchange; elution against a standard curve (between 44 kDa and 17 kDa); also with Ca2+ or EGTA/EDTA without effect
[3] = biological target: ΔLTRIN, truncated C-terminal LTRIN (lymphotoxin β receptor inhibitor), residues 86-210 (Aedes aegypti); assay: dynamic and static light scattering; DynaPro Nanostar; ΔLTRIN at 1 mg/mL to 20 mg/mL; also with Ca2+ or EGTA without effect
[4] = biological target: ΔLTRIN, truncated C-terminal LTRIN (lymphotoxin β receptor inhibitor), residues 86-210 (Aedes aegypti); assay: SEC; Superdex 75 after Ni-NTA and ion exchange; elution against a standard curve (between 44 kDa and 17 kDa); also with Ca2+ or EGTA/EDTA without effect
[5] = biological target: ΔLTRIN, truncated C-terminal LTRIN (lymphotoxin β receptor inhibitor), residues 86-210 (Aedes aegypti); assay: AUC; sedimentation velocity, 0.5 mg/mL, 25 mM Tris HCl, 50 mM NaCl pH 7.5, 40,000 rpm, 20 °C, continuous c(s) distribution

Substance | stoichiometry N [1] | stoichiometry N [2] | stoichiometry N [3] | stoichiometry N [4] | stoichiometry N [5]
C133Q ΔLTRIN (domain or fragment) | 2 | 2 | – | – | –
ΔLTRIN, truncated C-terminal LTRIN (lymphotoxin β receptor inhibitor), residues 86-210 (domain or fragment) | – | – | 2 | 2 | 2
